For orientation: Km means the concentration of substrate that gives half-maximal velocity. By kcat is commonly meant the maximal rate divided by the concentration of active sites. In general, kcat/Km refers to the turnover number divided by the Michaelis constant.

Our source for the Km, kcat and kcat/Km values is publication PMC4064709, “Acceleration of an aldo-keto reductase by minimal loop engineering” (Protein Engineering, Design and Selection, 2014).

Holding throughout (assay): initial rates of NADH-dependent reduction
Holding throughout (format): biochemical, Yamadazyma tenuis

The test system of one series is T1, CC(=O)c1ccc(Cl)cc1Cl.
T1 construct: full-length enzyme; redesigned CtXR expressed in E. coli BL21 (DE3), purified by dye ligand chromatography
Particulars: apparent; 300 µM NADH; max 5 mM; W23 and K24 replaced by pentapeptide FAPRE. An excerpt: (§1) initial rates of NADH-dependent reduction on Candida tenuis xylose reductase (CtXR)

A further series has as its system T2, CC(=O)c1ccccc1Cl.
T2 construct: full-length enzyme; redesigned CtXR expressed in E. coli BL21 (DE3), purified by dye ligand chromatography
Particulars: apparent; 300 µM NADH; max 10 mM; W23 and K24 replaced by pentapeptide FAPRE.
Source text: as §1

In series [1] the test system is T3, CCOC(=O)C(=O)c1ccc(C#N)cc1.
T3 construct: full-length enzyme; redesigned CtXR expressed in E. coli BL21 (DE3), purified by dye ligand chromatography
Particulars: apparent; 300 µM NADH; max 10 mM; W23 and K24 replaced by pentapeptide FAPRE.
Source text: as §1

Series [2] has as its system T4, NC(=O)C1=CN([C@@H]2O[C@H](COP(=O)(O)OP(=O)(O)OC[C@H]3O[C@@H](n4cnc5c(N)ncnc54)[C@H](O)[C@@H]3O)[C@@H](O)[C@H]2O)C=CC1.
T4 construct: full-length enzyme; redesigned CtXR expressed in E. coli BL21 (DE3), purified by dye ligand chromatography
Conditions: apparent; co-substrate 2′-chloroacetophenone (max 10 mM), as in the wild-type row; W23 and K24 replaced by pentapeptide FAPRE; varied: cofactor.
Source text: as §1

Substrate in series [3]: CC(=O)c1ccc(Cl)cc1Cl
Conditions: apparent; 300 µM NADH; incomplete substrate saturation (max 5 mM).
Source text: as §1

Substrate in series [4]: CC(=O)c1ccccc1Cl
Particulars: apparent; 300 µM NADH; incomplete substrate saturation (max 10 mM).
Source text: as §1

Substrate in series [5]: CCOC(=O)C(=O)c1ccc(C#N)cc1
Conditions: apparent; 300 µM NADH; incomplete substrate saturation (max 10 mM).
Source text: as §1

Substrate in series [6]: NC(=O)C1=CN([C@@H]2O[C@H](COP(=O)(O)OP(=O)(O)OC[C@H]3O[C@@H](n4cnc5c(N)ncnc54)[C@H](O)[C@@H]3O)[C@@H](O)[C@H]2O)C=CC1
Conditions: apparent; co-substrate 2′-chloroacetophenone (max 10 mM); varied: cofactor.
Source text: as §1

For “Candida tenuis xylose reductase (CtXR) (Yamadazyma tenuis; INS25PRE/K25A/W24F)”, the Km was 4 ± 1 mM in the series with CC(=O)c1ccc(Cl)cc1Cl, 5 ± 2 mM with CC(=O)c1ccccc1Cl, 4 ± 1 mM in series [1] and 0.07 ± 0.02 mM in series [2]. Further, the kcat in the series on CC(=O)c1ccc(Cl)cc1Cl amounted to 2.0 ± 0.4 s⁻¹; with CC(=O)c1ccccc1Cl, 1.0 ± 0.2 s⁻¹; in series [1], 17 ± 2 s⁻¹; in series [2] it was 1.0 ± 0.2 s⁻¹. In addition, the specificity constant (kcat/Km) in the series with CC(=O)c1ccccc1Cl came to 370 ± 50 M⁻¹ s⁻¹; in series [2], 7600 ± 500 M⁻¹ s⁻¹.

B1: Candida tenuis xylose reductase (CtXR) (Yamadazyma tenuis) (protein)
chain: MSASIPDIKLSSGHLMPSIGFGCWKLANATAGEQVYQAIKAGYRLFDGAEDYGNEKEVGDGVKRAIDEGLVKREEIFLTSKLWNNYHDPKNVETALNKTLADLKVDYVDLFLIHFPIAFKFVPIEEKYPPGFYCGDGNNFVYEDVPILETWKALEKLVAAGKIKSIGVSNFPGALLLDLLRGATIKPAVLQVEHHPYLQQPKLIEFAQKAGVTITAYSSFGPQSFVEMNQGRALNTPTLFAHDTIKAIAAKYNKTPAEVLLRWAAQRGIAVIPKSNLPERLVQNRSFNTFDLTKEDFEEIAKLDIGLRFNDPWDWDNIPIFV
notes: full-length enzyme; redesigned CtXR expressed in E. coli BL21 (DE3), purified by dye ligand chromatography
Take B1: the Michaelis constant (Km) is 6 ± 2 mM in series [3], 13 ± 4 mM in series [4], 5 ± 2 mM in series [5] and 0.11 ± 0.025 mM in series [6]. Further, the kcat in series [3] was found to be 2.7 ± 0.3 s⁻¹; in series [5], 0.4 ± 0.06 s⁻¹; in series [6], 0.8 ± 0.1 s⁻¹. For the same molecule, the kcat/Km came out at 100 ± 10 M⁻¹ s⁻¹ in series [5] and 8700 ± 400 M⁻¹ s⁻¹ in series [6].
